Source: patent publication US20100184701A1 (TREVENA, published 2010)
Non-standard residues stand in square brackets, D forms with d. No end group written: not given here. Sar = CNCC(=O)O

T1: human angiotensin 2 type 1 receptor (human, UniProt P30556 1-359)
T1 sequence (looked up): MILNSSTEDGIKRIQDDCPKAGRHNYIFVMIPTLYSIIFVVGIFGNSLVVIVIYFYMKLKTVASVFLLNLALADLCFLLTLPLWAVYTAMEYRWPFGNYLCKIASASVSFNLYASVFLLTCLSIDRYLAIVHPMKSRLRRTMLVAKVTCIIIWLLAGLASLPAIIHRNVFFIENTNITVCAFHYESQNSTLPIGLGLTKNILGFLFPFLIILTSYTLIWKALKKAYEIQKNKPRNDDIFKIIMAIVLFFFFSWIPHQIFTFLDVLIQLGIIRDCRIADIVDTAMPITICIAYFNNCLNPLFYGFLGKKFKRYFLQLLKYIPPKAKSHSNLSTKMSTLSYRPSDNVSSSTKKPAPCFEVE

T2: rat angiotensin 2 type 1 receptor (rat, UniProt P25095 1-359)
T2 sequence (looked up): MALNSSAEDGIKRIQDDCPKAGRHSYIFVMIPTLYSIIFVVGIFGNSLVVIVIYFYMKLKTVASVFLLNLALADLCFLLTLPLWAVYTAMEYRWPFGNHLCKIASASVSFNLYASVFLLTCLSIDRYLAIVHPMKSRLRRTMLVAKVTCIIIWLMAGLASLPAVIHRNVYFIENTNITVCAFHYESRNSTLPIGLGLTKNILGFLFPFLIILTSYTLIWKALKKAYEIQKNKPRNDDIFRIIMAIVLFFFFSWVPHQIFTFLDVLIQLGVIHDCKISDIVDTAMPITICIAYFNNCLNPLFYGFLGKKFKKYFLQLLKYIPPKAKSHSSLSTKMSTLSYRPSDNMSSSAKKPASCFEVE

B1: SEQ ID NO: 45 (peptide)
peptide: [Sar]RVYRHP-NH2
modifications: N-terminus assumed
SMILES: CNCC(=O)N[C@@H](CCCNC(=N)N)C(=O)N[C@H](C(=O)N[C@@H](Cc1ccc(O)cc1)C(=O)N[C@@H](CCCNC(=N)N)C(=O)N[C@@H](Cc1c[nH]cn1)C(=O)N1CCC[C@H]1C(N)=O)C(C)C
B2: SEQ ID NO: 49 (peptide)
peptide: [Sar]KVYIHP[dA]-OH
modifications: N-terminus assumed
SMILES: CC[C@H](C)[C@H](NC(=O)[C@H](Cc1ccc(O)cc1)NC(=O)[C@@H](NC(=O)[C@H](CCCCN)NC(=O)CNC)C(C)C)C(=O)N[C@@H](Cc1c[nH]cn1)C(=O)N1CCC[C@H]1C(=O)N[C@H](C)C(=O)O
B3: SEQ ID NO: 40 (peptide)
peptide: [Sar]RVYEHP-NH2
modifications: N-terminus assumed
SMILES: CNCC(=O)N[C@@H](CCCNC(=N)N)C(=O)N[C@H](C(=O)N[C@@H](Cc1ccc(O)cc1)C(=O)N[C@@H](CCC(=O)O)C(=O)N[C@@H](Cc1c[nH]cn1)C(=O)N1CCC[C@H]1C(N)=O)C(C)C
B4: SEQ ID NO: 43 (peptide)
peptide: [Sar]RVYKHP-NH2
modifications: N-terminus assumed
SMILES: CNCC(=O)N[C@@H](CCCNC(=N)N)C(=O)N[C@H](C(=O)N[C@@H](Cc1ccc(O)cc1)C(=O)N[C@@H](CCCCN)C(=O)N[C@@H](Cc1c[nH]cn1)C(=O)N1CCC[C@H]1C(N)=O)C(C)C
B5: SEQ ID NO: 41 (peptide)
peptide: [Sar]RVYFHP-NH2
modifications: N-terminus assumed
SMILES: CNCC(=O)N[C@@H](CCCNC(=N)N)C(=O)N[C@H](C(=O)N[C@@H](Cc1ccc(O)cc1)C(=O)N[C@@H](Cc1ccccc1)C(=O)N[C@@H](Cc1c[nH]cn1)C(=O)N1CCC[C@H]1C(N)=O)C(C)C
B6: SEQ ID NO: 50 (peptide)
peptide: [Sar]RVYIKP[dA]-OH
modifications: N-terminus assumed
SMILES: CC[C@H](C)[C@H](NC(=O)[C@H](Cc1ccc(O)cc1)NC(=O)[C@@H](NC(=O)[C@H](CCCNC(=N)N)NC(=O)CNC)C(C)C)C(=O)N[C@@H](CCCCN)C(=O)N1CCC[C@H]1C(=O)N[C@H](C)C(=O)O
B7: SEQ ID NO: 42 (peptide)
peptide: [Sar]RVYHHP-NH2
modifications: N-terminus assumed
SMILES: CNCC(=O)N[C@@H](CCCNC(=N)N)C(=O)N[C@H](C(=O)N[C@@H](Cc1ccc(O)cc1)C(=O)N[C@@H](Cc1c[nH]cn1)C(=O)N[C@@H](Cc1c[nH]cn1)C(=O)N1CCC[C@H]1C(N)=O)C(C)C

What was measured:
[1] = target: T1, human angiotensin 2 type 1 receptor; experiment: cell-based or functional assay
[2] = target: T2, rat angiotensin 2 type 1 receptor; experiment: cell-based or functional assay

Binder | IP One EC50 (M) [1] [M] | IP One EC50 [2] [nM] | IP One Max (%) [2] [%] | b-arrestin2 EC50 [1] [nM] | b-arrestin2 Max (%) [1] [%] | b-arrestin2 EC50 [2] [nM] | b-arrestin2 Max (%) [2] [%] | IP One EC50 (M) [2] [M]
ARVYIHPA (NMAla (N-methyl-L-alanine) at 1; D-Ala at 8) [SEQ ID NO: 44] | > 1e-05 | 8.2 | 14.6 |  |  |  |  | 
B1 | > 1e-05 | 26 | 10.2 | 30 | 53.3 | 27 | 91.7 | 
DRVYIHPA [SEQ ID NO: 25] |  |  | 14.1 |  | 57.9 |  | 77 | 
GRVYIHPA (Me2G (N,N-dimethylglycine) at 1) [SEQ ID NO: 32] |  |  | 6.8 |  | 55.6 |  | 80.2 | 
GRVYVHPA (Me2G (N,N-dimethylglycine) at 1) [SEQ ID NO: 31] |  | 13 | 6.2 | 100 | 58.1 |  | 75.9 | 
XRVFIHPA (Sar (sarcosine) at 1; D-Ala at 8) [SEQ ID NO: 48] | > 1e-05 |  | 13.9 | 1800 | 48.1 |  | 42.1 | 
RVYIHPRVYIHPRVYIHP (cyclic, as printed: Cyclo(...)) [SEQ ID NO: 36] | > 1e-05 | 100 | 19.2 | 1200 | 39.5 | 1900 | 32.8 | 
ARVYIHPA (NMAla (N-methyl-L-alanine) at 1) [SEQ ID NO: 34] | > 1e-05 |  |  | 25 | 53 | 32 | 81.7 | > 1e-05
B2 | > 1e-05 |  |  | 1000 | 72.7 | 630 | 52.9 | > 1e-05
XRVYIHP (Sar (sarcosine) at 1; D-Pro at 7; C-terminal amide (NH2)) [SEQ ID NO: 51] | > 1e-05 |  |  | 330 | 20.2 | 110 | 5.8 | > 1e-05
ARVYIHPA (NMAla (N-methyl-L-alanine) at 1; D-Ala at 8) [SEQ ID NO: 46] | > 1e-05 |  |  |  |  | 63 |  | > 1e-05
B3 | > 1e-05 |  |  | 95 | 53.2 | 31 | 87.9 | > 1e-05
FVYIHPFVYIHPFVYIHP (cyclic, as printed: Cyclo(...)) [SEQ ID NO: 37] | > 1e-05 |  | 14.7 |  | 62.3 | 1900 | 60.7 | 
B4 | > 1e-05 | 260 | 17.9 | 2100 | 42.7 | 910 | 64.8 | 
B5 | > 1e-05 |  |  | 1600 | 30.1 | 660 | 53.1 | > 1e-05
B6 | > 1e-05 |  |  | 680 | 56.8 | 270 | 85.6 | > 1e-05
VYIHPF (cyclic, as printed: Cyclo(...)) [SEQ ID NO: 38] | > 1e-05 |  | 20.8 | 680 | 43.1 | 2500 | 66.4 | 
ARVYIHPA (NM-D-Ala (N-methyl-D-alanine) at 1) [SEQ ID NO: 47] | > 1e-05 |  |  | 4800 | 80.5 | 2100 | 72.2 | > 1e-05
B7 | > 1e-05 |  |  | 630 | 46.4 | 270 | 74.9 | > 1e-05
ARVYVHPA (NMAla (N-methyl-L-alanine) at 1) [SEQ ID NO: 33] | > 1e-05 |  |  |  | 54.9 | 31 | 86.9 | > 1e-05
XRVYYHP (Sar (sarcosine) at 1) [SEQ ID NO: 52] |  | 300 | 8 | 1400 | 45.9 | 440 | 83.8 | 
